According to publication PMC3079584, “A Cytoplasmic Complex Mediates Specific mRNA Recognition and Localization in Yeast”:

Tests used:
[1] = molecular target: She2p (ΔC);She3p (Saccharomyces cerevisiae;Saccharomyces …, UniProt P36068;P38272 1-240;1-425, |); assay: EMSA; She3p 25 nM; at least 25 nM She2p(ΔC) required; EMSA: 20 mM HEPES pH 7.8, 200 mM NaCl, 2 mM MgCl2, 2 mM DTT, 4% glycerol, 30 or 100 ug/ml yeast tRNA, 5 nM RNA, 20 C; filter binding: 20 mM HEPES pH 7.4-7.5 (7.9 with She3p), 150 mM NaCl, 2 mM MgCl2, 2 mM DTT, 30 ug/ml yeast tRNA, 0.5 nM RNA; pull-down: HNMD buffer, 4 C; details: protein: recombinant;recombinant; tags: GST tag (PreScission-cleaved);C-terminal His6; label: 32P; stem-loop
[2] = molecular target: T1, She3p (Saccharomyces cerevisiae, UniProt P38272 1-425); assay: EMSA; minimal She3p concentration for detection; EMSA: 20 mM HEPES pH 7.8, 200 mM NaCl, 2 mM MgCl2, 2 mM DTT, 4% glycerol, 30 or 100 ug/ml yeast tRNA, 5 nM RNA, 20 C; filter binding: 20 mM HEPES pH 7.4-7.5 (7.9 with She3p), 150 mM NaCl, 2 mM MgCl2, 2 mM DTT, 30 ug/ml yeast tRNA, 0.5 nM RNA; pull-down: HNMD buffer, 4 C; details: protein: recombinant; tags: C-terminal His6; label: 32P; stem-loop
T1 sequence: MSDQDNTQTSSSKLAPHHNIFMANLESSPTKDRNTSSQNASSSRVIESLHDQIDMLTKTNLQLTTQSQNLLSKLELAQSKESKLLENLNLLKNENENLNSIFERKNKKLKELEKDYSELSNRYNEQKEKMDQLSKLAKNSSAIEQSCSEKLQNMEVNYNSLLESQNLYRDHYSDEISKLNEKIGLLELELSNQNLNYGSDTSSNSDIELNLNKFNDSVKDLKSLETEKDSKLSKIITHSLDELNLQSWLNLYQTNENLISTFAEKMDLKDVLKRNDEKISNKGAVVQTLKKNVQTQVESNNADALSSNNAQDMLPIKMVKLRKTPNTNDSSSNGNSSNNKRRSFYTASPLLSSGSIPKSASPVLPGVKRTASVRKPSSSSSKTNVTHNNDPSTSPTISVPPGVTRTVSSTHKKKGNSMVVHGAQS

Sequence of She2p (ΔC);She3p (P36068 1-240, stated change not applied, one chain of several): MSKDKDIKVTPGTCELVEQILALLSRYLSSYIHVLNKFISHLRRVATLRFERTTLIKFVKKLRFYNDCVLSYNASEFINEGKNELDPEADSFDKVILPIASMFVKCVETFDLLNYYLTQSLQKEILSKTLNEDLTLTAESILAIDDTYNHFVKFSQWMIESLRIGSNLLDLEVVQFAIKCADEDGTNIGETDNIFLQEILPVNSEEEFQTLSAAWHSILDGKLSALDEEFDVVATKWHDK

B1: ASH1 E3-118 (structured_RNA)
RNA: GAGACAGUAGAGAAUUGAUACAUGGAUAACUGAAUCUCUUUCAACUAAUAAGAGACAUUAUCACGAAACAAUUGUACAUUUCUCUCCUUGUCUGUGCUAAAUAAACUACAAAUAAAAA
binding signal [1]: ~5 fold reduced | binding result [2]: binds
